Experimental data from paper PMC6358511.

Target: EGFRvIII, biotinylated (human, UniProt P00533 25-30+298-645, V30G;internal_change)
Assay: BLI

GGACGGAUUUAAUCGCCGUAGAAAAGCAUGUCAAAGCCGGAACCGUCC (XNA, 2'-fluoro at all C and U; 2'-OH purines; 5' alkyne) [ME07 (alkyne-modified MinE07)]
Kd: 271 nM
